From patent US20170022545, “RNA MICROARRAY FOR DETECTING INTERACTION BETWEEN PROTEIN AND RNA CONTAINING A HIGHER-ORDER STRUCTURE” (KYOTO UNIVERSITY, published 2017)

B1: PoP_00024_hsa-let-7e loop (ssRNA)
RNA: GACGGGAUCCAAGCGCUCGUAAUAGCGGUGUACGAAGUUUCAGCAUAGUUGAGGAGGACACCCAAGGAGAUCACUAUGCUGAAGCUUCGUGCAC
B2: PoP_00025_hsa-let-7f-1 loop (ssRNA)
RNA: GUAAUCGAGGCGUAAGGCACAACAUAGGUGUACGAAGUUUCAGCAUAGUUGUGGGGUAGUGAUUUUACCCUGUUCAGGAGAUAACUAUGCUGAAGCUUCGUGCAC
B3: PoP_00026_hsa-let-7f-2 loop (ssRNA)
RNA: GCCUUGAUGGCCGUCAGUUCGGUUAAGGUGUACGAAGUUUCAGCAUAGUUUUAGGGUCAUACCCCAUCUUGGAGAUAACUAUGCUGAAGCUUCGUGCAC
B4: PoP_00027_hsa-let-7g loop (ssRNA)
RNA: GCACAAGGAGUAAGGCGCAUGUACCCGGUGUACGAAGUUUCAGCACAGUUUGAGGGUCUAUGAUACCACCCGGUACAGGAGAUAACUGUGCUGAAGCUUCGUGCAC
B5: PoP_00028_hsa-let-7i loop (ssRNA)
RNA: GAUAUGACCGCCGGCUUAGAAUAGAAGGUGUACGAAGUUUCAGCGCUGUUGGUCGGGUUGUGACAUUGCCCGCUGUGGAGAUAACUGCGCUGAAGCUUCGUGCAC
B6: PoP_00018_hsa-let-7a-1 loop (ssRNA)
RNA: GGUGACGGGCAAAUCACUAACCACCCGGUGUACGAAGUUUCAGCAUAGUUUUAGGGUCACACCCACCACUGGGAGAUAACUAUGCUGAAGCUUCGUGCAC
B7: PoP_00019_hsa-let-7a-2 loop (ssRNA)
RNA: GACACGGUAGGGAAACCCACCAACUAGGUGUACGAAGUUUCAGCAUAGUUUAGAAUUACAUCAAGGGAGAUAACUGUGCUGAAGCUUCGUGCAC
B8: PoP_00020_hsa-let-7a-3 loop (ssRNA)
RNA: GAGAGAGGAUUCUCACUUACUGUACCGGUGUACGAAGUUUCAGCAUAGUUUGGGGCUCUGCCCUGCUAUGGGAUAACUAUGCUGAAGCUUCGUGCAC
B9: PoP_00021_hsa-let-7b loop (ssRNA)
RNA: GAACCGGCUACGCUAAACUUAGAACCGGUGUACGAAGUUUCAGCGUGGUUUCAGGGCAGUGAUGUUGCCCCUCGGAAGAUAACUAUGCUGAAGCUUCGUGCAC
B10: PoP_00022_hsa-let-7c loop (ssRNA)
RNA: GAACUGGCAAUCGCACCCACCUAAAGGGUGUACGAAGUUUCAGCGGUUUAGAGUUACACCCUGGGAGUUAACUGCUGAAGCUUCGUGCAC
B11: PoP_00023_hsa-let-7d loop (ssRNA)
RNA: GCAAUAUCAUCGCGUGUUAAGGUGGCGGUGUACGAAGUUUCAGCAUAGUUUUAGGGCAGGGAUUUUGCCCACAAGGAGGUAACUAUGCUGAAGCUUCGUGCAC
B12: PoP_00010_U1A2 (ssRNA)
RNA: GGUGUCCAGAUUAGGCGUGCCAUACCGUUUGGGAAUAUAGUGCCGAGUCCUUCGGGACAUUGCACCGGCGCUAUAUUCCCGGA
B13: PoP_00014_U1A (ssRNA)
RNA: GAUAGAGCCAACUAUGCGCAGUUACCGUUUGGGAAUAUAGUGCCAUUGCACUCCGGCGCUAUAUUCCCGGA
B14: PoP_00011_dU1A2 (ssRNA)
RNA: GAGACGAGGCCCUAGAUCAUGCAUCCGUUUGGGAAUAUAGUGCCGAGUCCUUCGGGACAUUACGGCGGCGCUAUAUUCCCGGA
B15: PoP_00016_dU1A (ssRNA)
RNA: GGGGUAUAUCCUCACACUUCCCGGGCGUUUGGGAAUAUAGUGCCAUUACGGUCCGGCGCUAUAUUCCCGGA
B16: PoP_00008_dKt (ssRNA)
RNA: GGAUUCCACUCAAGCUUCACGGGAUAGUUUGGGAAUAUAGUGCCUGCCCGAAAGGGCGUCAUGGCGCUAUAUUCCCGGA
B17: PoP_00001_Kt (ssRNA)
RNA: GUAUAAGCGGGAGAUUCGUCCUCAUAGGUGUACGAAGUUUCAGCUGACCCGAAAGGGCGUGAUGCUGAAGCUUCGUGCAC

What follows are binders tested against T1, L7Ae (UniProt O29494 O29494:1-119) (assay: EMSA; 50 mM HEPES-KOH pH 7.8, 100 mM KCl, on ice). Details: tags: Cy3-labelled (NHS ester); label: 3' pCp-Cy5; hairpin.
T1 sequence (O29494 whole entry, one chain of several): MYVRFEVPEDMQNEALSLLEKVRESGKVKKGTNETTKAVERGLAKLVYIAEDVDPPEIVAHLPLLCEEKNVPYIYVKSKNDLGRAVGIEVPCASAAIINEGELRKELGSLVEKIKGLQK
Description: Specific binding of DNA Barcode (bc25mer_00001) and Cy5-RNA probe (PoP_00001_Kt), and further, binding of Cy5-RNA probe (PoP_00001_Kt, PoP_00024_hsa-let-7e) and L7Ae were confirmed by EMSA as follows. First, bc25mer_00001 and PoP_00001_Kt or PoP_00024_hsa-let-7e were mixed and annealed. The composition of a reaction solution (11 μL) was as follows: 500 nM bc25mer_00001, 500 nM Cy5-RNA probe, 1× Annealing Buffer (50 mM HEPES-KOH (ph7.8), 100 mM KCl). The reaction was incubated at 95° C. for 5 minutes and at room temperature for 10 minutes. Subsequently, the DNA/RNA complex annealed and L7Ae were bound by mixing them as follows. The composition of a reaction solution (15 μL) was as follows: 0, 100, 200, 500 or 1000 nM Cy3-L7Ae, 50 nM DNA/RNA complex and 1× Annealing Buffer. Incubation was performed on ice for one hour. To the solution, 3.75 μL of a 5× dye solution (0.25% bromophenol blue, 30% glycerol) was added and mixed. The mixture solution (10 μL) was overlaid on non-denatured 15% polyacrylamide (1/30 bis-acrylamide) gel and electrophoresis was performed at 4° C. and 200 V for 60 minutes. After the electrophoresis, the gel was stained with SYBR Green I and II at room temperature for 15 minutes, and scanned by Typhoon FLA 7000 (GE Healthcare) in SYBR Green mode (600 pmt). Bands were confirmed.

| Binder | binding signal [fold stronger than Kt] |
| --- | --- |
| B1 | ~10 |

What follows are binders tested against T1, L7Ae (assay: RNA microarray, no Cy3 signal). Details: tags: Cy3-labelled (NHS ester); label: 3' pCp-Cy5; hairpin.
Description: The mixture solution was incubated at 100° C. for 5 minutes and subsequently on ice for 5 minutes. On the lower frame of a hybridization chamber (Agilent), a gasket slide (Agilent) was mounted. In a single well of the gasket slide, the mixture solution (45 μL) was added and the well was covered with a DNA Barcode microarray slide and then a hybridization chamber was assembled. The hybridization chamber was set at a rotor (Agilent) of a hybridization oven of 55° C. Incubation was performed for 20 hours at a rotation rate of 20 per minute. The hybridization chamber was taken out from the oven and made into pieces. The microarray slide was taken out, separated from the gasket in Gene Expression Wash Buffer 1 (Agilent), washed with Gene Expression Wash Buffer 1 at room temperature for 5 minutes and further washed with Gene Expression Wash Buffer 2 (Agilent) at 37° C. for 5 minutes. The dried microarray slide was scanned by a microarray scanner (Agilent) in the mode of 8×15K, c scan, AglilentHD_miRNA, two color, XDR Hi and Lo (0.05). In this manner, binding of an RNA probe to a target spot was confirmed based on Cy5 signal.
Subsequently, to the gasket slide on the hybridization chamber, 70 μL of 5 nM Cy3-L7Ae (controlled in concentration with TBSMT buffer (Tris-HCl 20 mM, NaCl 300 mM, 5 mM MgCl₂, 0.1% Tween-20)) was added and then a microarray slide scanned was mounted. A hybridization chamber was assembled and incubation was performed at room temperature for 30 minutes. The hybridization chamber was made into pieces and the microarray slide was taken out, separated from the gasket in the TBSMT buffer, washed with TBSMT buffer at room temperature for 5 minutes, and further washed with TBSM buffer (Tris-HCl 20 mM, NaCl 300 mM, 5 mM MgCl₂) at room temperature for 5 minutes. The dried microarray slide was scanned again. […] In addition, Cy3 signal, which was 1.5 times as strong as that at PoP_00001_Kt, was detected at a spot of PoP_00024_hsa-let-7e. No Cy3 signal was detected at spots of other 10 probes.

| Binder | binding result |
| --- | --- |
| B2 | no binding |
| B3 | no binding |
| B4 | no binding |
| B5 | no binding |
| B6 | no binding |
| B7 | no binding |
| B8 | no binding |
| B9 | no binding |
| B10 | no binding |
| B11 | no binding |

What follows are binders tested against T2, U1A (Homo sapiens, UniProt P09012 P09012:2-282) (assay: RNA microarray, 40 nM U1A). Details: tags: Cy3-labelled (NHS ester); label: 3' pCp-Cy5; hairpin.
T2 sequence (P09012 2-282, one chain of several): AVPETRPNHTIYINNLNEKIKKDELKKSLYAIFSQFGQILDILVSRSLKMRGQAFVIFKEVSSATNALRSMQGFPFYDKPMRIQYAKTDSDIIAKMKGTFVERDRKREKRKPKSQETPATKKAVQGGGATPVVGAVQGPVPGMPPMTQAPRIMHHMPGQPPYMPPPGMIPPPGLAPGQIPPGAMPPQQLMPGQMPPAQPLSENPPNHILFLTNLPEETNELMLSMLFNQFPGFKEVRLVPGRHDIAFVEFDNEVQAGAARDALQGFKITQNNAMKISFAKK
Description: (§1) To a 1.5-mL tube, 120 ng of Cy5-RNA probe PoP_00001 Kt, 120 ng of Cy5-RNA probe PoP_00001, 00008, 00010, 00011, 00014, 00016, PoP_00018-28 and ultrapure water were mixed and controlled to have a volume of 18 μL. Hereinafter, the same operation as described in Section 8 above was performed. Binding of the RNA probe to a target spot was confirmed based on Cy5 signal.
(§2) Subsequently, to the gasket slide on the hybridization chamber, 70 μL of 40 nM Cy3-U1A was added and a microarray slide having RNA probes bound thereto was mounted and then a hybridization chamber was assembled. Incubation was performed at room temperature for 30 minutes. The hybridization chamber was made into pieces and the microarray slide was taken out, separated from the gasket in the TBSMT buffer, washed with TBSMT buffer at room temperature for 5 minutes, and further rinsed with TBSM buffer. Thereafter, the dried microarray slide was scanned.

| Binder | binding signal |
| --- | --- |
| B12 | ≥ 10 fold Cy3 signal vs other spots |
| B13 | ≥ 10 fold Cy3 signal vs other spots |

Each binder was assayed against T2, U1A (assay: RNA microarray, signal at least 10-fold below U1A2/U1A). Details: tags: Cy3-labelled (NHS ester); label: 3' pCp-Cy5; hairpin.
Description: as §1, §2

| Binder | binding result |
| --- | --- |
| B1 | no binding |
| B2 | no binding |
| B3 | no binding |
| B4 | no binding |
| B5 | no binding |
| B14 | no binding |
| B15 | no binding |
| B16 | no binding |
| B6 | no binding |
| B7 | no binding |
| B8 | no binding |
| B9 | no binding |
| B10 | no binding |
| B11 | no binding |

Same assay, conditions: tags: Cy3-labelled (NHS ester); label: 3' pCp-Cy5; hairpin, Kt kink-turn loop

| Binder | binding result |
| --- | --- |
| B17 | no binding |

The binders below were run against T1, L7Ae (assay: RNA microarray, 5 nM L7Ae, 300 mM NaCl, 5 mM MgCl2). Details: tags: Cy3-labelled (NHS ester); label: 3' pCp-Cy5; hairpin.
Description: To a 1.5 mL tube, 120 ng of Cy5-RNA probe PoP_00001_Kt, 120 ng of Cy5-RNA probe PoP_00018-28 and ultrapure water were mixed and controlled to have a volume of 18 μL. To this, 4.5 μL of 10× Gene Expression Blocking Agent (Agilent) and 22.5 μL of 2×Hi-RPM Hybridization Buffer (Agilent) were added and mixed. The mixture solution was incubated at 100° C. for 5 minutes and subsequently on ice for 5 minutes. On the lower frame of a hybridization chamber (Agilent), a gasket slide (Agilent) was mounted. In a single well of the gasket slide, the mixture solution (45 μL) was added and the well was covered with a DNA Barcode microarray slide and then a hybridization chamber was assembled. The hybridization chamber was set at a rotor (Agilent) of a hybridization oven of 55° C. Incubation was performed for 20 hours at a rotation rate of 20 per minute. The hybridization chamber was taken out from the oven and made into pieces. […]
Subsequently, to the gasket slide on the hybridization chamber, 70 μL of 5 nM Cy3-L7Ae (controlled in concentration with TBSMT buffer (Tris-HCl 20 mM, NaCl 300 mM, 5 mM MgCl₂, 0.1% Tween-20)) was added and then a microarray slide scanned was mounted. […] In addition, Cy3 signal, which was 1.5 times as strong as that at PoP_00001_Kt, was detected at a spot of PoP_00024_hsa-let-7e.

| Binder | binding signal [fold Cy3 signal vs Kt] |
| --- | --- |
| B1 | 1.5 |
